Columns and labels:
[1] = biological target: GSK3 (huGSK3myc), P49841
[2] = biological target: Axin
[3] = biological target: β-catenin
Chain of β-catenin (P35222 2-781): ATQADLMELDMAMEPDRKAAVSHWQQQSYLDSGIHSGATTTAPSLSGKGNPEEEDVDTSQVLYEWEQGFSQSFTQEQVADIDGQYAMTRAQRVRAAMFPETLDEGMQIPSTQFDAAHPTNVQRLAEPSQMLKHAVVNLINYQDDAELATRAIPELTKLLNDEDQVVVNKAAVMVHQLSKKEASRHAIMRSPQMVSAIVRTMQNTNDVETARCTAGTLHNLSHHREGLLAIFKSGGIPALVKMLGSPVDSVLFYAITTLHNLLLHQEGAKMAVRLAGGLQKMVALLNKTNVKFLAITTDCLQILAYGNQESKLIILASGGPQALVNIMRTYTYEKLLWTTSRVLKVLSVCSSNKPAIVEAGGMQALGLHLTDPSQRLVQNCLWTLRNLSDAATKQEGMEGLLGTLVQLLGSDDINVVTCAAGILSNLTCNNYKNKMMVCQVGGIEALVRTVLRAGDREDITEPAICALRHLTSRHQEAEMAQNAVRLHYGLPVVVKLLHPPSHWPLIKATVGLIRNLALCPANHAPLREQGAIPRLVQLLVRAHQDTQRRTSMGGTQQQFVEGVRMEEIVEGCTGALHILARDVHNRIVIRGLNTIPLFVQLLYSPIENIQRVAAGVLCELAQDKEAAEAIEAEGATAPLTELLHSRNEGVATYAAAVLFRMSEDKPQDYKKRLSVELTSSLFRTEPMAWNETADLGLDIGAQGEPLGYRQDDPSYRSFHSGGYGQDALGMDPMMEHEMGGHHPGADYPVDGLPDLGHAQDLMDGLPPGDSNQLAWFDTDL

Chain of GSK3 (huGSK3myc), P49841 (P49841 whole entry, looked up): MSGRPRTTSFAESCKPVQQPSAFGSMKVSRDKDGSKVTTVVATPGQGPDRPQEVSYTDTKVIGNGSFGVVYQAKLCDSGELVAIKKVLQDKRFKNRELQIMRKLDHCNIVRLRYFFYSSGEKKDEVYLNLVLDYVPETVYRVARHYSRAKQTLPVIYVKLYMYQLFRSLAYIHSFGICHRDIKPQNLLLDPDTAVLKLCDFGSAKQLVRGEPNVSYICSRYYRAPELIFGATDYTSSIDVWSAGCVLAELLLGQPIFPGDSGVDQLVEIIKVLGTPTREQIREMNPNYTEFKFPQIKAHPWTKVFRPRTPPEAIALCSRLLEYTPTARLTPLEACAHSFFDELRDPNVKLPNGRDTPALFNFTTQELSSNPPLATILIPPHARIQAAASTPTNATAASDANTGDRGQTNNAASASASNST

Protein | in vitro kinase assay (phosphorylation of GSK3) [1] | phosphorylation [2] | in vitro phosphorylation [3]
C-terminally truncated CKIε (protein) MELRVGNKYRLGRKIGSGSFGDIYLGANIASGEEVAIKLECVKTKHPQLHIESKFYKMMQGGVGIPSIKWCGAEGDYNVMVMELLGPSLEDLFNFCSRKFSLKTVLLLADQMISRIEYIHSKNFIHRDVKPDNFLMGLGKKGNLVYIIDFGLAKKYRDARTHQHIPYRENKNLTGTARYASINTHLGIEQSRRDDLESLGYVLMYFNLGSLPWQGLKAATKRQKYERISEKKMSTPIEVLCKGYPSEFSTYLNFCRSLRFDDKPDYSYLRQLFRNLFHRQGFSYDYVFDWNMLKFGAARNPED | A truncated mutant, CKIε, where the C-terminus was deleted had intact kinase activity. It was immunoprecipitated using anti-HA antibody and mixed with Immunoprecipitated GSK3. |  | 
mouse casein kinase I epsilon, HA-tagged (CKIε-HA) (protein) MELRVGNKYRLGRKIGSGSFGDIYLGANIASGEEVAIKLECVKTKHPQLHIESKFYKMMQGGVGIPSIKWCGAEGDYNVMVMELLGPSLEDLFNFCSRKFSLKTVLLLADQMISRIEYIHSKNFIHRDVKPDNFLMGLGKKGNLVYIIDFGLAKKYRDARTHQHIPYRENKNLTGTARYASINTHLGIEQSRRDDLESLGYVLMYFNLGSLPWQGLKAATKRQKYERISEKKMSTPIEVLCKGYPSEFSTYLNFCRSLRFDDKPDYSYLRQLFRNLFHRQGFSYDYVFDWNMLKFGAARNPEDVDRERREHEREERMGQLRGSATRALPPGPPTGATANRLRSAAEPVASTPASRIQQTGNTSPRAISRADRERKVSMRLHRGAPANVSSSDLTGRQEVSRLAASQTSVPFDHLGK | either purified CKIε protein or immunoprecipitated CKIε phosphorylated purified GSK3 protein as well as immunoprecipitated GSK3 protein | CKIε phosphorylates Axin | CKIε phosphorylates β-catenin in vitro
